According to PMC4549865, “The Escherichia coli NarL receiver domain regulates transcription through promoter specific functions” (BMC Microbiology, 2015):

B1: NarL N-terminal domain plus linker region (NarL^N, residues 2-141), unphosphorylated (domain or fragment, Escherichia coli, UniProt P0AF28 2-141, looked up)
chain: SNQEPATILLIDDHPMLRTGVKQLISMAPDITVVGEASNGEQGIELAESLDPDLILLDLNMPGMNGLETLDKLREKSLSGRIVVFSVSNHEEDVVTALKRGADGYLLKDMEPEDLLKALHQAAAGEMVLSEALTPVLAAS
notes: NarL, nitrate response regulator of Escherichia coli; residues 2-141 (in-frame beginning at Ser2, stop codon introduced at Leu142); receiver domain and linker helix alpha6; The pQE9 construction puts a Gly in the place of Met1, before Ser2; also called NarL^(N (2–141)); NarL RD; source: E. coli JM109 (pQE9 derivative pMJ99), purified (Ni-NTA resin or HiTrap chelating column)
B2: Phosphorylated NarL receiver domain with portion of the linker (NarL^N-P, residues 2-141) (domain or fragment, Escherichia coli, UniProt P0AF28 2-141, looked up)
chain: B1 chain
modifications: phosphorylated with acetyl phosphate; the site of phosphorylation is Asp59
notes: NarL, nitrate response regulator of Escherichia coli; residues 2-141 (in-frame beginning at Ser2, stop codon introduced at Leu142); receiver domain and linker helix alpha6; The pQE9 construction puts a Gly in the place of Met1, before Ser2; also called phosphorylated NarL^N; phosphorylated RD

Target: the molecule itself
Assay: AUC; sedimentation equilibrium, 4 °C, Beckman Optima XL-A, absorption optics; samples at 60 μM and 160 μM in 25 mM Tris pH 7.5-8.5, 500 mM NaCl (other salts in some runs); 11,000-22,000 rpm; single-species fits and global fits of monomer-dimer and other models; monomer to dimer

Protein | stoichiometry N
B1 | 2
B2 | 2
